Our source for the amyloid nucleation score values is the supplement of paper PMC12042874.

± gives the uncertainty stated by the source.

The nature of this series: amyloid nucleation score (Sup35N fusion, yeast selection) (log enrichment); library NNK3; higher = more nucleation; inactive = no reads after selection. In short, it runs like this:
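Sup35N was fused to peptides of 20 random codons and expressed in psi-negative yeast, which were induced with 100 μM copper sulfate for 24 hours and then grown on medium lacking adenine and uracil for 7 days at 30°C. Plasmid inserts from input and output were sequenced on Illumina. The nucleation score is the DiMSum log enrichment of output over input reads, centred on the mode score of non-aggregating sequences. Sequences with under 100 input reads were left out, and random libraries had three technical output replicates.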
Turning to TACVFPLMFTTVPGFFFVVE, the amyloid nucleation score entry was “inactive”.

As to IFLRYSLSSRYHRCLLLKES, the amyloid nucleation score entry was “inactive”.

For PRLLRVSAIKSGRCPKGKKS, the amyloid nucleation score entry is “inactive”.

Regarding FFNIYLVRNSYQKTCAGLTR, the amyloid nucleation score was 2.05 ± 0.091.

FNKVRWSRVTGTFWKVLIRV: the amyloid nucleation score entry was “inactive”.

Consider YDLGVAVLNRNSKRSC, for which the amyloid nucleation score entry is “inactive”.

With YSMSILFRYHLNGVRYGMTG, the amyloid nucleation score result was “inactive”.

As for HRREMSHCKREPWKSINFYW, the amyloid nucleation score result is “inactive”.

In the case of GAIRLRSVNSNLGWLTAPLR, the amyloid nucleation score entry was “inactive”.

With GNALSAFPVGSFRKVVRCHG, the amyloid nucleation score result was “inactive”.

As for VKTWCYRCCSGALSLS, the amyloid nucleation score result was “inactive”.

In the case of KFLKLQVYASNGSSDPPRLD, the amyloid nucleation score result is “inactive”.

For the substance RGSGILRVLTKSRWCICMGT, the amyloid nucleation score result was “inactive”.

With RRNHMEFWTCSKYPRGLCGI, the amyloid nucleation score result was “inactive”.

VKSFCCFGWVLSP: the amyloid nucleation score entry was “inactive”.

Turning to PCGVEMLWFKG, the amyloid nucleation score result is “inactive”.

As to YISSFKFRLSCLRYQIVNSV, the amyloid nucleation score entry is “inactive”.

Consider LCEEYYSINTWFRYVNVDIL, for which the amyloid nucleation score entry is “inactive”.

Consider VKLNYISLDENVRSVKQVMI, for which the amyloid nucleation score result is “inactive”.

Regarding IVFSGNLLVGNGFGVLKRKT, the amyloid nucleation score came to 1.32 ± 0.14.

For the substance GDTVLVILSILSVGCC, the amyloid nucleation score turned out to be 1.2 ± 0.15.

For VGCHLWEHWRSMQVR, the amyloid nucleation score result was “inactive”.

As to FHTWISGLPEVHWGVLEVRW, the amyloid nucleation score entry was “inactive”.

With PESGAPNPSGYCLAHH, the amyloid nucleation score entry is “inactive”.

In turn, VSLLSVCGCDRRVFEVWHYG had an amyloid nucleation score of 0.446 ± 0.2.

Turning to LVSLWLDRD, the amyloid nucleation score entry was “inactive”.

As to SLDKLAFRD, the amyloid nucleation score result was “inactive”.

Turning to IYTLSTLLWFWSAWSILAVI, the amyloid nucleation score was -0.197 ± 1.1.

FIGGVVTVTVYNNTVESGLK returned an amyloid nucleation score of 1.65 ± 0.13.

Turning to GRKAWDEL, the amyloid nucleation score entry is “inactive”.

In turn, GLNLISISFRAGFAGMHRRA gave an amyloid nucleation score of 1.82 ± 0.099.

MVGFLDTFSRIAVRCSIDRW gave an amyloid nucleation score of -0.344 ± 1.

Regarding FFLTHGCTCEDALKFGWVCY, the amyloid nucleation score result is “inactive”.

As for WVPKFYRLGSDTWSSVSLDV, the amyloid nucleation score entry is “inactive”.

As to KTPLSSSCRKILIINTPRGM, the amyloid nucleation score result is “inactive”.

SYNKEKVSKTFVGCPTRSMV: the amyloid nucleation score entry was “inactive”.

Turning to RPRNLSLASYTDSVMRFGLS, the amyloid nucleation score result is “inactive”.

For SRTLTVYRVCHHIESSTNNF, the amyloid nucleation score entry is “inactive”.

With YVVELLVDSGYVPLCTTGQG, the amyloid nucleation score result was “inactive”.

For the substance RNFGYIDSKLWP, the amyloid nucleation score result is “inactive”.

Consider GSEHYLPSYYRFFLLVFYDV, for which the amyloid nucleation score entry is “inactive”.

RCDRVCGWGDRFNAGSGYRW: the amyloid nucleation score result was “inactive”.

For RCTVSTSGSGGFCPVPRSGM, the amyloid nucleation score entry was “inactive”.

Turning to TMTRSLYSVVSFKRFNSCLV, the amyloid nucleation score entry was “inactive”.

Turning to IYDAGFVYQIGTEEQVCNRV, the amyloid nucleation score result is “inactive”.

In the case of MSRGGYWSKVR, the amyloid nucleation score result is “inactive”.

For VFVVGSVSRCCKKLVT, the amyloid nucleation score result is “inactive”.

In the case of YRFLHSEVEVAHFWLWCSSS, the amyloid nucleation score result was “inactive”.

Consider KLRCNTIKGFCSHKTRMGRT, for which the amyloid nucleation score entry is “inactive”.

As for KCNPVINFLWEMVLSDVFPL, the amyloid nucleation score entry is “inactive”.

For VSACLNSGGQHSQRHANMAV, the amyloid nucleation score entry was “inactive”.

SQFTEICTPVRHGSCCR: the amyloid nucleation score entry is “inactive”.

Regarding NSLPCLGYGMFM, the amyloid nucleation score result is “inactive”.

With QGLSCDFRVLLLIYRSCGRG, the amyloid nucleation score result was “inactive”.

With RSMRSQSSLQAHQSIRSEGR, the amyloid nucleation score entry is “inactive”.

Turning to SWAVRMAGEYFRNSDMMWCA, the amyloid nucleation score entry is “inactive”.

For the substance MGKTRLADLRVYRTVWLFSR, the amyloid nucleation score entry is “inactive”.

For the substance ELCTVLIVRFSRGSERLKNE, the amyloid nucleation score entry was “inactive”.

Turning to VNNPQVDHRVLFNNM, the amyloid nucleation score was -0.426 ± 0.61.

In turn, VGFILWFGGHCGS gave an amyloid nucleation score of 0.659 ± 0.23.

As to FFSSGVVRQAYVLVAEDNVS, the amyloid nucleation score entry was “inactive”.

On to FQKQLASRCTSWSWTRWLVQ, for which the amyloid nucleation score result was “inactive”.

Regarding VIGAFRLYNFNVALISSNIS, the amyloid nucleation score result is “inactive”.

In the case of RWTNNRSEIGAPYGWPTAS, the amyloid nucleation score entry was “inactive”.

Turning to KLQHIFLFFDRS, the amyloid nucleation score came to 1.1 ± 0.11.

RFACFSRGACFCNRLVMPYD: the amyloid nucleation score result is “inactive”.

In the case of GLYVVYFNILTTKGYQLIVM, the amyloid nucleation score entry was “inactive”.

Take VLRGHSMHRSMGLWLA: the amyloid nucleation score result is “inactive”.

In the case of RAKVNSRGCEESFF, the amyloid nucleation score was -0.007 ± 0.73.

SQQRQVMPKRQSEKLYPSH: the amyloid nucleation score result was “inactive”.

With QSSKDTWRCASDKYERSGKR, the amyloid nucleation score entry is “inactive”.

For the substance MSSSSAFD, the amyloid nucleation score result was “inactive”.

Consider RFFVNL, for which the amyloid nucleation score result was “inactive”.

In turn, LSIDMSLYLCSTFYFK yielded an amyloid nucleation score of 2.31 ± 0.06.

For AKTSADYTYVASRTDFGCVN, the amyloid nucleation score result was “inactive”.

For the substance CCSGLAMAFRFYASYSGAIY, the amyloid nucleation score result was “inactive”.

In the case of DGTMANRIVVF, the amyloid nucleation score result was “inactive”.

For the substance KVRSVDCRNTSNKDHW, the amyloid nucleation score result is “inactive”.

For the substance FGTNVLYAFM, the amyloid nucleation score result is “inactive”.

For the substance SLIQY, the amyloid nucleation score result was “inactive”.

In the case of VRWQYVYMPPA, the amyloid nucleation score result was “inactive”.

With DMIINILRSDYQWWSAN, the amyloid nucleation score entry is “inactive”.

Consider HIWGIRKCDPPLTVVMFQSL, for which the amyloid nucleation score entry was “inactive”.

LFMSPVKSAWRIVCGNKFSQ yielded an amyloid nucleation score of -0.642 ± 1.1.

For the substance TDHAWFWEQS, the amyloid nucleation score result is “inactive”.

Take LEYLKV: the amyloid nucleation score result was “inactive”.

As to DDHLGKVGSGFRIGICTLQN, the amyloid nucleation score result was “inactive”.

The substance LNFCFHYCI gave an amyloid nucleation score of 1.54 ± 0.12.

On to TFFIIIGYVLASGGALGLCR, for which the amyloid nucleation score entry is “inactive”.

Turning to NLEGRKRLMILVFKCCELAI, the amyloid nucleation score result was “inactive”.

Substance WNFYGWRVLSHRRTGSVHRL had an amyloid nucleation score of -0.847 ± 1.4.

For TKGKLLSKHLGFVRCRVHRS, the amyloid nucleation score result is “inactive”.

Turning to YKYVTNDLSRVILRPVSARY, the amyloid nucleation score result is “inactive”.

For the substance MGVICWYLRACNPQPGSNCK, the amyloid nucleation score result is “inactive”.

Take CWAYVMRT: the amyloid nucleation score result is “inactive”.
